Experimental data from the supplement of paper PMC7877785.
± gives the uncertainty stated by the source.

Test: self-splicing fitness, log relative to wild type (ln ratio); higher = more splicing; Tetrahymena group I intron in knt gene, E. coli kanamycin selection, DiMSum; sequences stand for … in CUCUCU…GGAGGGAAAAGUUAUCAGGCAUGCACCUGGUAGCUAGUCUUUAAACCAAUAGAUUGCAUCGGUUUAAAAGGCAAGACCGUCAAAUUGCGGGAAAGGGGUCAACAGCCGUUCAGUACCAAGUCUCAGGGGAAACUUUGAGAUGGCCUUGCAAAGGGUAUGGUAAUAAGCUGACGGACAUGGUCCUAACCACGCAGCCAAGUCCUAAGUCAACAGAUCUUCUGUUGAUAUGGAUGCAGUUCACAGACUAAAUGUCGGUCGGGGAAGAUGUAUUCUUCUCAUAAGAUAUAGUCGGACCUCUCCUUAAUGGGAGCUAGCGGAUGAAGUGAUGCAACACUGGAGCCGCUGGGAACUAAUUUGUAUGCGAAAGUAUAUUGAUUAGUUUUGGAGUACUCGUGGUCG
How it was run: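 Pooled colonies went to amplicon sequencing on an Illumina HiSeq 2500 after six replicate transformations. The plates were LB agar with 100 μg/mL carbenicillin, 50 μM IPTG and 0.2% rhamnose, with or without 25 μg/mL kanamycin, incubated overnight at 37°C or 30°C. The E. coli BL21(DE3) library had all eight P1ex-region intron nucleotides randomised, the intron placed in the knt kanamycin-resistance gene on pET-22b(+). DiMSum fitness is the error-weighted combination of replicate fold changes, kanamycin against none, normalised to wild type.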

Row | Sequence | self-splicing fitness (ln) (30 °C) | self-splicing fitness (ln) (37 °C)
1 | UUAUAGCAAUAUUACGGGCA | -2.37 ± 0.18 | -1.32 ± 0.19
2 | CCCCAGCAAUAUUACGCCGA |  | -2.04 ± 0.25
3 | AGGUAGCAAUAUUACGGACG | -1.46 ± 0.015 | -0.546 ± 0.034
4 | UACGAGCAAUAUUACGUUCU | -2.38 ± 0.14 | -2.35 ± 0.16
5 | GGUCAGCAAUAUUACGAUGC | -0.354 ± 0.091 | 0.43 ± 0.11
6 | UCAGAGCAAUAUUACGAAGU | -3.13 ± 0.33 | 
7 | CGGCAGCAAUAUUACGAUCG | -2.76 ± 0.18 | -1.97 ± 0.19
8 | UAGAAGCAAUAUUACGUAUA | -1.58 ± 0.16 | -0.471 ± 0.15
9 | GCUUAGCAAUAUUACGGAAA | -2.37 ± 0.25 | -0.752 ± 0.17
10 | GGUCAGCAAUAUUACGUAGU | -0.367 ± 0.064 | 0.693 ± 0.075
11 | CGAAAGCAAUAUUACGAAAU | -2.32 ± 0.19 | -2.96 ± 0.24
12 | GACUAGCAAUAUUACGCCAA |  | -1.6 ± 0.29
13 | GGAAAGCAAUAUUACGCUCU | -3.11 ± 0.33 | 
14 | ACGGAGCAAUAUUACGCAGU | -3.19 ± 0.34 | -2.35 ± 0.49
15 | GACAAGCAAUAUUACGAGAA | -1.77 ± 0.3 | -2.19 ± 0.22
16 | GGACAGCAAUAUUACGAAGA | -2.27 ± 0.22 | -0.517 ± 0.19
17 | GGGGAGCAAUAUUACGGUAC |  | 0.506 ± 0.25
18 | AGUAAGCAAUAUUACGGAAU | -2.75 ± 0.14 | -1.5 ± 0.15
19 | CCGAAGCAAUAUUACGGCAC | -4.15 ± 0.31 | -2.37 ± 0.33
20 | AGCUAGCAAUAUUACGAUUG | -2.89 ± 0.24 | -1.98 ± 0.23
21 | GGCAAGCAAUAUUACGGGCU | -2.53 ± 0.2 | -2.48 ± 0.2

Row | Sequence | self-splicing fitness (ln) (30 °C) | self-splicing fitness (ln) (37 °C)
22 | GUGUAGCAAUAUUACGCGUG | -3.82 ± 0.26 | -1.49 ± 0.15
23 | UGCUAGCAAUAUUACGAUGG | -1.52 ± 0.067 | -0.47 ± 0.088
24 | CGGAAGCAAUAUUACGGCGC | -1.89 ± 0.37 | -0.448 ± 0.28
25 | UCUUAGCAAUAUUACGUAUU | -3.1 ± 0.28 | -3.54 ± 0.39
26 | CCCCAGCAAUAUUACGGGCC | -3.27 ± 0.15 | -1.7 ± 0.15
27 | ACAUAGCAAUAUUACGCGAC | -3.68 ± 0.42 | -0.813 ± 0.18
28 | CCUUAGCAAUAUUACGACAG | -1.81 ± 0.11 | -0.864 ± 0.14
29 | UUUAAGCAAUAUUACGAUGG | -1.05 ± 0.11 | -0.525 ± 0.14
30 | UAACAGCAAUAUUACGCUUU | -3.43 ± 0.14 | -1.82 ± 0.13
31 | CUGAAGCAAUAUUACGACGC | -3.78 ± 0.35 | 
32 | UCUCAGCAAUAUUACGGUGA | -1.8 ± 0.13 | -1.14 ± 0.12
33 | GAACAGCAAUAUUACGUACU | -1.26 ± 0.077 | -0.125 ± 0.1
34 | UUAUAGCAAUAUUACGUGUG | -1.63 ± 0.083 | -0.419 ± 0.098
35 | UUGAAGCAAUAUUACGAGGU | -4.15 ± 0.37 | -1.78 ± 0.22
36 | GCCUAGCAAUAUUACGGAGC | -2.44 ± 0.13 | -1.43 ± 0.1
37 | GUGGAGCAAUAUUACGUACA | -2.11 ± 0.33 | 
38 | CUAAAGCAAUAUUACGGAAG | -0.274 ± 0.062 | 0.0341 ± 0.083
39 | UGGAAGCAAUAUUACGGGCC |  | -1.27 ± 0.34
40 | UAUUAGCAAUAUUACGGGCG | -0.882 ± 0.076 | 0.185 ± 0.083
41 | CGUAAGCAAUAUUACGAUCG | -1.03 ± 0.11 | -0.0852 ± 0.13
